For one substance, Kd, Relative Affinity (to IGF-1) and fold affinity relative to human insulin results are on record in patent publication US20100099601A1.

The experiment concerns the target Insulin-like Growth Factor Receptor (IGFR; Type I IGF receptor) (UniProt P08069). Briefly: displacement of 125I-IGF-1 from IGFR. A general note: Loss of bound radioactivity is the signal in a displacement assay; it reports binding, not function.

pKd: −log10 of the molar value.

As for “Lantus (insulin analogue with two additional Arg residues at the carboxy-terminal end of the B-chain) (ligand)”, the pKd (in general, the negative decadic logarithm of the Kd, by convention in mol/L) is 8.50; the Relative Affinity (to IGF-1) came out at 0.015 fold; the fold affinity relative to human insulin is 2 to 3 fold.
